Results on two proteins are retold here after paper PMC10922747 (Cell, 2024).

The data set “cryo-EM structure” concerns the molecule itself. Description: cryo-EM structure.
The data set “negative-stain EM” concerns the molecule itself. Description: negative-stain EM.

B1: mouse PNMA2 (mPNMA2) protein (full length) (natural protein, UniProt Q8BHK0 1-365, looked up)
chain: MAVALLEEWCKIMGVDVQKSLLVVDIPVDCGEPEIQTVLQEALKCVGSYRLLGKIFQKQDNTSVVLVELMEDTDMSVVPSEVQGKGGVWKVIFKTPNQDTEFLQRLNLFLEKEGQTVAGMFRALKHEGVSPATPPCTSPELLAHLTGQAMVHGQRPLLPVKYCKMRIFSGSTAAAPEEEPFEVWLEQATEIAKEWPIPEAEKKRWVAESLRGPALDLMHIVQADNPSISVGECLEAFKQVFGSTESRRTSQVKYLRTYQQEGEKISAYVLRLETLLRRAVEKRAIPRNIADQVRLEQVMAGANLGNVLWCRLQELKDQGPLPTFLQLMKVIREEEEEEDAYFEQESREEPGEREGSGCWNNSRNN
For the protein B1, the stoichiometry N – broadly, a count of units in the complex or per binding partner – in “cryo-EM structure” worked out at 60.

B2: human PNMA2 (hPNMA2) protein (full length) (natural protein, UniProt Q9UL42 1-364, looked up)
chain: MALALLEDWCRIMSVDEQKSLMVTGIPADFEEAEIQEVLQETLKSLGRYRLLGKIFRKQENANAVLLELLEDTDVSAIPSEVQGKGGVWKVIFKTPNQDTEFLERLNLFLEKEGQTVSGMFRALGQEGVSPATVPCISPELLAHLLGQAMAHAPQPLLPMRYRKLRVFSGSAVPAPEEESFEVWLEQATEIVKEWPVTEAEKKRWLAESLRGPALDLMHIVQADNPSISVEECLEAFKQVFGSLESRRTAQVRYLKTYQEEGEKVSAYVLRLETLLRRAVEKRAIPRRIADQVRLEQVMAGATLNQMLWCRLRELKDQGPPPSFLELMKVIREEEEEEASFENESIEEPEERDGYGRWNHEGDD
Take B2: the binding result in the data set “negative-stain EM” is recorded as “binds”.
